B1: cleaved intermediate of the 5'-ppp dsRNA (4-nt cleaving strand, 8-nt complementary strand) (dsRNA)
RNA 1: GGGC
RNA 2: GGGCGCCC
modifications: 5'-triphosphate
B2: 8-bp 5'-ppp dsRNA (input) (dsRNA)
RNA 1: GGGCGCCC
RNA 2: GGGCGCCC
modifications: 5'-triphosphate

Legend:
[1] = target: T1, LASV NP-C (catalytically active exoribonuclease domain) (Lassa virus, UniProt P13699 364-569); test: X-ray crystallography, 1.68 A; […], pH 5.5, room temperature; […]; details: protein: recombinant; 5' overhang 4 nt on complementary strand
[2] = target: T1, LASV NP-C (catalytically active …); test: […], pH 5.5, room temperature; […]; details: protein: recombinant; blunt; self-complementary, 2 copies of one strand

T1 sequence (P13699 364-569): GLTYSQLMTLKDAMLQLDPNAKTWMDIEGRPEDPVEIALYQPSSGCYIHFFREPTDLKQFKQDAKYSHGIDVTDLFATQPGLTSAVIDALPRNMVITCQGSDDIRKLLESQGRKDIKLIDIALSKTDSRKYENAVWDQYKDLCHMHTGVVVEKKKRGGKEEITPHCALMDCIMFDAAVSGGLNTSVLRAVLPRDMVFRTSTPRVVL

Binder	binding result [1]	binding result [2]
B1	binds	–
B2	–	binds
